Assays:
[1] = Brightness of additional luciferase enzyme variants with CS0280; assay type: biochemical; settings: Table 7B; for luminescence CS0280 BG / luminescence CS0280 DR: 1 mM CS0280; for luminescence CS0280 BG / Fold improvement over ATG3707, CS0280 BG: Bright-Glo buffer; for luminescence CS0280 DR / Fold improvement over ATG3707, CS0280 DR: Detection Reagent buffer
Description: (§1) Additional luciferase enzyme variants were generated and evaluated for their stability and activity. To evaluate the additional luciferase enzyme variants, 0.005 mg/ml luciferase enzyme variant was mixed with 1 mM ATP+1 mM substrate in either Bright-Glo™ (BG) or Detection Reagent (DR) buffers. […] (Table 7A is colored according to their relative luminescence values within each column across a red to green color spectrum with the lowest values colored red and the highest values colored green.)

[2] = Differential scanning fluorimetry (DSF) analysis; assay type: physicochemical; settings: Table 7B
Description: (§2) To conduct the experiment, Sypro Orange (5000×) was diluted in water to 3× and combined with enzymes stored in 50 mM HEPES pH 7.5, 100 mM NaCl, 2 mM EDTA to a final concentration of 5×. Fluorescence was read at 60 second intervals as the reactions were heated at 1° C. per minute from 30-95° C. The change in fluorescence at each minute was calculated and plotted for each temperature in the range.
as §2, with “The luciferase enzyme variants generated were also evaluated using DSF analysis as shown in the representative results provided in Tables 7A and 7B above. To” for “To”, “the experiments,” for “the experiment,”, “in 20” for “in 50”, “7.5, 200” for “7.5, 100”, “NaCl, 1” for “NaCl, 2”

[3] = Brightness of additional luciferase enzyme variants with CS0333; assay type: biochemical; settings: Table 7B; for luminescence CS0333 BG / luminescence CS0333 DR: 1 mM CS0333; for luminescence CS0333 BG / Fold improvement over ATG3707, CS0333 BG: Bright-Glo buffer; for luminescence CS0333 DR / Fold improvement over ATG3707, CS0333 DR: Detection Reagent buffer
Description: as §1

Row | Molecule | luminescence CS0280 BG [1] | luminescence CS0280 DR [1] | Fold improvement over ATG3707, CS0280 BG [1] | Fold improvement over ATG3707, CS0280 DR [1] | DSF Tm (° C.) [2] | luminescence CS0333 BG [3] | luminescence CS0333 DR [3] | Fold improvement over ATG3707, CS0333 BG [3] | Fold improvement over ATG3707, CS0333 DR [3]
1 | C9679H10: SEQ ID NO: 99; H244W+T344A+I396K+S193A+N228D+L305F+S306P+I109V+A316W+T344I (protein) MADKNILYGPEPFYPLEDGTAGEQMFDALSRYAAIPGRIALTNAHTKENVLYEEILKLSCRLAESFKKYGLKQNDTIAVCSENSLQFFLPVIASLYLGIIVAPVNDKYVERELIHSLGIVKPRIVFCSKNTFQKVLNVKSKLKSIETIIILDLNEDLGGYQCLNNFISQNSDSNLDVKKFKPYSFNRDDQVAAIMFSSGTTGLPKGVMLTHKNIVARFSIAKDPTFGDAINPTSAILTVIPFHWGFGMMTTLGYFTCGFRVVLMHTFEEKLFLQSLQDYKVESTLLVPTLMAFLAKSALVEKYDFPHLKEIASGGWPLSKEIGEMVKKRFKLNFVRQGYGLSEATSAILITPKGDAKPGSTGKIVPLHAVKVVDPTTGKILGPNEPGELYFKGPMKMKGYYNNEEATKAIIDNDGWLRSGDIAYYDNDGHFYIVDRLKSLIKYKGYQVAPAEIEGILLQHPYIVDAGVTGIPDEAAGELPAAGVVVQTGKYLNEQIVQDYVASQVSTAKWLRGGVKFLDEIPKGSTGKIDRKVLRQMLEKHTNGHHHHHHHH | 7,349,470 | 984,923 | 9.26 | 33.69 | 65 °C | 12,508,600 | 11,647,400 | 2.35 | 2.73
2 | C9671D10: SEQ ID NO: 100; H244W+T344A+I396K+S193A+N228D+L305F+S306P+I109V+C38R+F55I+Y108F+A316W+Y339M+T344I (protein) MADKNILYGPEPFYPLEDGTAGEQMFDALSRYAAIPGRIALTNAHTKENVLYEEILKLSCRLAESFKKYGLKQNDTIAVCSENSLQFFLPVIASLYLGIIVAPVNDKYVERELIHSLGIVKPRIVFCSKNTFQKVLNVKSKLKSIETIIILDLNEDLGGYQCLNNFISQNSDSNLDVKKFKPYSFNRDDQVAAIMFSSGTTGLPKGVMLTHKNIVARFSIAKDPTFGDAINPTSAILTVIPFHWGFGMMTTLGYFTCGFRVVLMHTFEEKLFLQSLQDYKVESTLLVPTLMAFLAKSALVEKYDFPHLKEIASGGWPLSKEIGEMVKKRFKLNFVRQGYGLSEATSAILITPKGDAKPGSTGKIVPLHAVKVVDPTTGKILGPNEPGELYFKGPMKMKGYYNNEEATKAIIDNDGWLRSGDIAYYDNDGHFYIVDRLKSLIKYKGYQVAPAEIEGILLQHPYIVDAGVTGIPDEAAGELPAAGVVVQTGKYLNEQIVQDYVASQVSTAKWLRGGVKFLDEIPKGSTGKIDRKVLRQMLEKHTNGHHHHHHHH | 11,877,500 | 1,439,510 | 14.97 | 49.24 | 65 °C | 8,464,030 | 7,772,660 | 1.59 | 1.82
3 | C9673G4: SEQ ID NO: 96; H244W+T344A+I396K+S193A+N228D+L305F+S306P+I109V+C38R+F55I+A316W+T342S+V348I+I396I (protein) MADKNILYGPEPFYPLEDGTAGEQMFDALSRYAAIPGRIALTNAHTKENVLYEEILKLSCRLAESFKKYGLKQNDTIAVCSENSLQFFLPVIASLYLGIIVAPVNDKYVERELIHSLGIVKPRIVFCSKNTFQKVLNVKSKLKSIETIIILDLNEDLGGYQCLNNFISQNSDSNLDVKKFKPYSFNRDDQVAAIMFSSGTTGLPKGVMLTHKNIVARFSIAKDPTFGDAINPTSAILTVIPFHWGFGMMTTLGYFTCGFRVVLMHTFEEKLFLQSLQDYKVESTLLVPTLMAFLAKSALVEKYDFPHLKEIASGGWPLSKEIGEMVKKRFKLNFVRQGYGLSETTSAILITPKGDAKPGSTGKIVPLHAVKVVDPTTGKILGPNEPGELYFKGPMIMKGYYNNEEATKAIIDNDGWLRSGDIAYYDNDGHFYIVDRLKSLIKYKGYQVAPAEIEGILLQHPYIVDAGVTGIPDEAAGELPAAGVVVQTGKYLNEQIVQDYVASQVSTAKWLRGGVKFLDEIPKGSTGKIDRKVLRQMLEKHTNGHHHHHHHH | 1,298,420 | 104,671 | 1.64 | 3.58 | 71 °C | 18,508,700 | 12,268,900 | 3.48 | 2.88
4 | C9715F9: SEQ ID NO: 95; H244W+T344A+1396K+S193A+N228D+L305F+S306P+I109V+C38R+A316W+T342S+V348I+K205N (protein) MADKNILYGPEPFYPLEDGTAGEQMFDALSRYAAIPGRIALTNAHTKENVLYEEFLKLSCRLAESFKKYGLKQNDTIAVCSENSLQFFLPVIASLYLGIIVAPVNDKYVERELIHSLGIVKPRIVFCSKNTFQKVLNVKSKLKSIETIIILDLNEDLGGYQCLNNFISQNSDSNLDVKKFKPYSFNRDDQVAAIMFSSGTTGLPKGVMLTHKNIVARFSIAKDPTFGDAINPTSAILTVIPFHWGFGMMTTLGYFTCGFRVVLMHTFEEKLFLQSLQDYKVESTLLVPTLMAFLAKSALVEKYDFPHLKEIASGGWPLSKEIGEMVKKRFKLNFVRQGYGLSEATSAILITPKGDAKPGSTGKIVPLHAVKVVDPTTGKILGPNEPGELYFKGPMKMKGYYNNEEATKAIIDNDGWLRSGDIAYYDNDGHFYIVDRLKSLIKYKGYQVAPAEIEGILLQHPYIVDAGVTGIPDEAAGELPAAGVVVQTGKYLNEQIVQDYVASQVSTAKWLRGGVKFLDEIPKGSTGKIDRKVLRQMLEKHTNGHHHHHHHH | 2,040,340 | 245,081 | 2.57 | 8.38 | 68 °C | 18,891,000 | 14,484,700 | 3.55 | 3.40
5 | C8523E12: SEQ ID NO: 94; H244W+T344A+I396K+S193A+N228D+L305F+S306P+I109V+C38R+F55I+A316W+T342S+V348I (protein) MADKNILYGPEPFYPLEDGTAGEQMFDALSRYAAIPGCIALTNAHTKENVLYEEFLKLSCRLAESFKKYGLKQNDTIAVCSENSLQFFLPVIASLYLGIIVAPVNDKYVERELIHSLGIVQPRIVFCSKNTFQKVLNVKSKLKSIETIIILDLNEDLGGYQCLNNFISQNSDSNLDVKKFKPYSFNRDDQVAAIMFSSGTTGLPKGVMLTHKNIVARFSIAKDPTFGDAINPTSAILTVIPFHWGFGMMTTLGYFTCGFRAVLMHTFEEKLFLQSLQDYKVESTLLIPTLMAFLAKSALVEKYDFPHLKEIASGGAPLSKEIGEMVKKRFKLNFVRQGYGLTEATSAVLITPKGDAKPGSTGKIVPLHAVKVVDPTTGKILGPNEPGELYFKGPMKMKGYYNNEEATKAIIDNDGWLRSGDIAYYDNDGHFYIVDRLKSLIKYKGYQVAPAEIEGILLQHPYIVDAGVTGIPDEAAGELPAAGVVVQTGKYLNEQIVQDYVASQVSTAKWLRGGVKFLDEIPKGSTGKIDRKVLRQMLEKHTNGHHHHHHHH | 1,996,020 | 213,031 | 2.52 | 7.29 | 67 °C | 20,331,700 | 15,418,100 | 3.82 | 3.62

From US12545899B2, “Luciferase enzymes for use with thermostable luciferins in bioluminescent assays” (Promega Corporation, priority 2018, dated 2026)
